32 variants from the RNAGym collection of RNA variant scans (doi:10.7554/elife.80360) can be followed below.

B1: HDV Ribozyme (parent)
chain: GGCCGGCAUGGUCCCAGCCUCCUCGCUGGCGCCGGCUGGGCAACAUUCCGAGGGGACCGUCCCCUCGGUAAUGGCGAAUGGGACCCA

This series covers variants of B1. Nature of the series: self-cleavage, relative activity (ratio to wild type); higher = more cleavage; co-transcriptional.
With GGCCGGCAUGGUCCCAGCCUCCUCGCUGGCGCCGGCUGGGCAACAUUCCGAGGGGACCGUACCCUCGGUAAAGGCGAAUGGGACCCA, the self-cleavage was 0.745. GGCCGGAAUGGUCCCAGCCUCCUAGCUGGCGCCGGCUGGGCAACAUUCCGAGGGGACCGUCCCCUCGGUAAUGGCGAAUGGGACCCA: the self-cleavage was found to be 0.125. With GGCCGGCAUGGUCCCAGACUCCUCGCUGGCGCCGGCUGGGCAACAUUCCGAGGGGACCGUCCCCUCGGUAAUGGCGAAUGGGACCCA, the self-cleavage came out at 0.145. The value for GGCCGGCAUGGGCCCAGCCUCCUCGCUGGCGCCGGCUGGGCAACAUGCCGAGGGGACCGUCCCCUCGGUAAUGGCGAAUGGGACCCA was 1.21; that for GGCCGGCAUGGUCCCAGCCUCCUCGCUGGCGCCGGCUGGGCAACACUCCGAGGGGACCGUCCCCUCGGUAAUGGCGCAUGGGACCCA was 0.375; that for GGCCGGCAUGGUCCCAGCCUCCUCGCUGGCGCCGGCUGGGCAACAUUCCGAGGGGACCGUCCCCUCGGUCAGGGCGAAUGGGACCCA was 0.185. Take GGCCGGCAUGGUCCCAGCCUCCUCGCUGGCGCCGGCUGGGCAACAUUCCGAGGGGACCGUCCCCUCGGUAAUGGCGGUUGGGACCCA: the self-cleavage stood at 0.266. In the case of GGCCGGCAUGGUCCCAGCCUCCUCGCUGGCGACGGCUGGCCAACAUUCCGAGGGGACCGUCCCCUCGGUAAUGGCGAAUGGGACCCA, the self-cleavage came out at 0.134.

In the case of GGCCGGCAUGGUCCCAGCCUCCUCCCUGGCGCCGGCUGGGCAACAUUCGGAGGGGACCGUCCCCUCGGUAAUGGCGAAUGGGACCCA, the self-cleavage was found to be 0.0594. GGCCGGCAUGGUCCCAGCCUCCUCGCUGGCGCCGGCUGGGCAACAUUCCGAGGCGACCGUCCCCUCGGUAAUGGCGAAUCGGACCCA: the self-cleavage was found to be 0.256.

Consider GGCCGGCAUGGUCUCAGCCUCCUCGCUGGCGCCGGCUGGGCUACAUUCCGAGGGGACCGUCCCCUCGGUAAUGGCGAAUGGGACCCA, for which the self-cleavage is 0.587. With GGCGGGCAUGGUCCCAGCCUCCUCGCUGGCGCCGGCUGGGCAACAUUCCGAGGGGACCGUCCCCUUGGUAAUGGCGAAUGGGACCCA, the self-cleavage worked out at 0.445. GGCCGGCAUGGUCCCAGCCUCCUCGCUGGCGCCGGCUGGGCAACAUUCCGAGGGGACCGUCCUCGCGGUAAUGGCGAAUGGGACCCA: the self-cleavage is 0.96. GGCCGGCAUGGUCCCAGCCUCCUCGCUGGCGCCGGCUGGGCAACAUUCUGAGGGGACCGUCCCCUCGGUUAUGGCGAAUGGGACCCA: the self-cleavage is 0.877. For GGCCGGCCUGGUCCCAGCCUCCUCGCUGGCGCCGGCUGGGCAACUUUCCGAGGGGACCGUCCCCUCGGUAAUGGCGAAUGGGACCCA, the self-cleavage was 0.429. As for GGCCGGCAUGGUCCCAGCCUCCUCGCUGGCGCCGGCUGGGCAACAUUCCGAGGGCACCGUCCCCUCGGUAAUGGCGAAUGCGACCCA, the self-cleavage was 0.141. With GGCCGGCAUGGUCCCAGCCUCCUCGCUGGCGCCGGCUGGGCAACAUACCGAGGGGACCGUCCCCUGGGUAAUGGCGAAUGGGACCCA the figure was 0.982; with GGCCGGCAUGGUCCCAGCCUCCUCGCUGGCGCCGGCUGGCCAACAUUCCGAGGAGACCGUCCCCUCGGUAAUGGCGAAUGGGACCCA, 0.398. GGCCGGCAUGGUCCCAGCCUCCUAGCUGGCGCCGGCUGAGCAACAUUCCGAGGGGACCGUCCCCUCGGUAAUGGCGAAUGGGACCCA: the self-cleavage was 0.0779. Take GGCCGGCUUGGUCCCAGCCUCCUCGCUGGCGCCGGCUGGGCAACAUUCCGAGAGGACCGUCCCCUCGGUAAUGGCGAAUGGGACCCA: the self-cleavage amounted to 0.665. Consider GGCCGGCAUGGUCCCAGCCUCCUCGCUGGCGCCGGCUGGGCAACAUUCCGUGGGGACCGUCCCCUCGCUAAUGGCGAAUGGGACCCA, for which the self-cleavage stood at 0.554.

For GGCCGGCAUGGUGCCAGCCUCCUCGCUGGCGCCGGCUGGGCAACAUUCCGAGGGGACCGUCCCCUCGGUAAUGGCGAAUGGGUCCCA, the self-cleavage worked out at 0.

As for GGCCGUCAUGGUCCCAGCCUCCUCGCUGGCGCCGGUUGGGCAACAUUCCGAGGGGACCGUCCCCUCGGUAAUGGCGAAUGGGACCCA, the self-cleavage was found to be 0.227. With GGCCGGCAUGGUCCCAGCCUCCUCGCUGGCGCCGGCUGGGCAACAUUCCGAGGGGACCGUCCCCUCGGUAGUGGCGAAUGGGAGCCA the figure was 0.465; with GGCCGGCAUGGUCCCAGCCUCCUCGCUGGCGCCGUCUGUGCAACAUUCCGAGGGGACCGUCCCCUCGGUAAUGGCGAAUGGGACCCA, 0.0941; with GGCCGGCAUGGUCCCUGCCUCCUCGCUGGCGCCGGCUGGGCAACAUUCCGAGGGGACCGUCCCCUCGGUAAUUGCGAAUGGGACCCA, 0.237. The value for GGCCGGCAUAGUCCCAGCCUCCUCGCUGGCGCCGGAUGGGCAACAUUCCGAGGGGACCGUCCCCUCGGUAAUGGCGAAUGGGACCCA was 0.0687; that for GGCCGGCAUGGUCCCAGCCUCCUCGCCGGCGCCGGCUGGGGAACAUUCCGAGGGGACCGUCCCCUCGGUAAUGGCGAAUGGGACCCA was 0.217; that for GGCCGGCAUGGUCCCAGCCUCCUCGCUGGCGCCGGCUGGGCAACAUUCCGAGGGGACCGUCCCCUCGGUAAUGGGGAAUGGGACCCA was 0.159. For GGCCGGCAUGGUCCCAGCCUCCUCGCUGGCGCCGGCUGGGCAACAUUCCGAGGGGACCGUCCCCUCGGGAUUGGCGAAUGGGACCCA, the self-cleavage stood at 0.974.

In the case of GGGCGGCAUGGUCCCAGCCUCCUCGCUGGCACCGGCUGGGCAACAUUCCGAGGGGACCGUCCCCUCGGUAAUGGCGAAUGGGACCCA, the self-cleavage worked out at 0.0608. Consider GGCCGGCAUGGCCCCAGCCUCCUAGCUGGCGCCGGCUGGGCAACAUUCCGAGGGGACCGUCCCCUCGGUAAUGGCGAAUGGGACCCA, for which the self-cleavage was 0.232.
